{"source": "paper PMC8201785", "key": {"CA09 HA": {"target": "CA09 HA", "assay": "BLI"}, "PR34 HA": {"target": "PR34 HA", "assay": "BLI"}}, "data": [{"substance": "MEDI8852", "values": [{"measurement": "Kd", "setting": "CA09 HA", "value": 0.502, "unit": "nM"}, {"measurement": "koff", "setting": "CA09 HA", "value": 0.000147, "unit": "s⁻¹"}, {"measurement": "Kd", "setting": "PR34 HA", "value": 1.36, "unit": "nM"}, {"measurement": "koff", "setting": "PR34 HA", "value": 0.00023, "unit": "s⁻¹"}]}]}
